{"source": "patent US20230242674A1", "about": "(LANKENAU INSTITUTE FOR MEDICAL RESEARCH, published 2023)", "binders": {"B1": {"name": "murine IDO2 epitope peptide (amino acids 331-351 of murine IDO2) (peptide)", "peptide": "RDYILASGPGDCLMAYNQCVE"}, "B2": {"name": "anti-human IDO2 monoclonal antibody 13-3 (antibody, V domains shown)", "VH": "QVRLQQPGAELVKPGASVKLSCKASGYTFTSYWMHWVKQRPGQGLEWIGEINPSTGRTNYNERFRSKATLTVDKFSTTAYMQFSSLTSEDSAVYYCVGLRFAYWGQGTLVSVSA", "VL": "DVVMTQTPLSLPVSFGDQVSISCRSSQSLADSYGNTYLSWYLHKPGQSPQLLIYGISNRFSGVPDRFSGSGSGTDFTLKISTIKPEDLGMYYCLQGTHQPLTFGAGTKLELKR", "notes": "Mouse hybridoma antibody raised against human IDO2 amino acids 331-351; It was detected with an anti-mouse IgG Fc-specific secondary antibody; also called mAb 13-3"}, "B3": {"name": "anti-human IDO2 monoclonal antibody 18-1 (antibody, V domains shown)", "VH": "B2 VH", "VL": "B2 VL", "notes": "Mouse hybridoma antibody; It was detected with an anti-mouse IgG Fc-specific secondary antibody; also called mAb 18-1"}, "B4": {"name": "anti-human IDO2 monoclonal antibody 20-10 (antibody, V domains shown)", "VH": "B2 VH", "VL": "B2 VL", "notes": "Mouse hybridoma antibody; It was detected with an anti-mouse IgG Fc-specific secondary antibody; also called mAb 20-10"}, "B5": {"name": "Human Epitope (peptide)", "peptide": "RDYILSSGQDHLLTAYNQCVQ", "notes": "also called hIDO2 Peptide"}}, "key": {"[1]": {"biological_target": "B3", "assay": "competitive ELISA; soluble peptide titrated against 1 µg/ml mAb in solution; competitor: coated recombinant human IDO2 (100 ng); plate-bound mAb detected with anti-mouse IgG Fc HRP and ABTS", "description": "FIGS. 2A and 2B show results of a competitive ELISA that was developed to test the specificity of the antibodies. 100 ng of the recombinant human IDO2 protein was used to coat the ELISA plate. A constant amount (1 μg/ml) of IDO2 antibody was incubated in solution with specified concentrations of soluble peptide. If the antibody interacted with the soluble peptide, the antibody was then unavailable to bind the coated antigen. Anti-IDO2 Ig that bound the fixed protein was detected with an anti-mouse IgG FC-specific HRP secondary antibody and ABTS substrate. Data is presented as Mean±SD. […] FIG. 2A is a graph of a competitive ELISA comparing the recognition of the three anti-human IDO2 mAbs of FIG. 1 to the human epitope, plotting absorbance vs. epitope peptide concentration. FIG. 2B is a graph of a competitive ELISA comparing the recognition of the three anti-human IDO2 mAbs of FIG. 1 to the mouse epitope, plotting absorbance vs. epitope peptide concentration.\nA competitive ELISA was developed to test the specificity of the antibodies. 100 ng of the recombinant human IDO2 protein was used to coat the ELISA plate. A constant amount (1 μg/ml) of IDO2 antibody was incubated in solution with specified concentrations of soluble peptide. […] Anti-IDO2 Ig that bound the fixed protein was detected with an anti-mouse IgG FC-specific HRP secondary antibody and ABTS substrate."}, "[2]": {"biological_target": "T1, mouse IDO1 with V5 tag, expressed in T-REx cells (mouse, UniProt P28776 1-407)", "T1 construct": "Cell extract fractionated for the Western blot; also called murine IDO1; not shown: V5 tag", "T1 sequence (P28776 whole entry)": "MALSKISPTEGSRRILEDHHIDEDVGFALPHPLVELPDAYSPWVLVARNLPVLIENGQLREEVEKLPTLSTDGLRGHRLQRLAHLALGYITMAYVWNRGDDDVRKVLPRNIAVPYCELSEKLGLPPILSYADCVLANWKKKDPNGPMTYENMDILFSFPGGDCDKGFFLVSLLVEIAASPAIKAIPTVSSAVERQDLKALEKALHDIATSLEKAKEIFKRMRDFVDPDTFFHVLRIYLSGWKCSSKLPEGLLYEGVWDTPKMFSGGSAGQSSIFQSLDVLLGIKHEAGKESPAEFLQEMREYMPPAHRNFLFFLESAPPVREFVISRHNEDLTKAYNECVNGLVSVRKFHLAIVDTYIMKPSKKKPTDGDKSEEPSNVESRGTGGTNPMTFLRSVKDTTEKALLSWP", "assay": "Western blot of T-REx cell extracts; HRP secondary antibody, chemiluminescence", "description": "(§1) FIG. 3 is a Western blot analysis using IDO-expressing Tᵣₑₓ cells. All IDO expressed proteins mouse and human IDO 1 and IDO2 contain a V5 tag. […] Cell extracts for IDO expressing cells or the parental T-REX line were prepared and fractionated as previously described (PMID: 17671174 & 26717206). Detection of indicated proteins was done using standard blotting methods, HRP conjugated secondary antibodies and chemiluminescence detection reagents.\nas §1, with “A” for “FIG. 3 is a”, “analysis was conducted” for “analysis”, “containing” for “contain”, “(See US2019/0062452, incorporated by reference herein).” for “(PMID: 17671174 & 26717206).”"}, "[3]": {"biological_target": "T2, human IDO1 with V5 tag, expressed in T-REx cells (human, UniProt P14902 1-403)", "T2 construct": "Cell extract fractionated for the Western blot; not shown: V5 tag", "T2 sequence (P14902 whole entry)": "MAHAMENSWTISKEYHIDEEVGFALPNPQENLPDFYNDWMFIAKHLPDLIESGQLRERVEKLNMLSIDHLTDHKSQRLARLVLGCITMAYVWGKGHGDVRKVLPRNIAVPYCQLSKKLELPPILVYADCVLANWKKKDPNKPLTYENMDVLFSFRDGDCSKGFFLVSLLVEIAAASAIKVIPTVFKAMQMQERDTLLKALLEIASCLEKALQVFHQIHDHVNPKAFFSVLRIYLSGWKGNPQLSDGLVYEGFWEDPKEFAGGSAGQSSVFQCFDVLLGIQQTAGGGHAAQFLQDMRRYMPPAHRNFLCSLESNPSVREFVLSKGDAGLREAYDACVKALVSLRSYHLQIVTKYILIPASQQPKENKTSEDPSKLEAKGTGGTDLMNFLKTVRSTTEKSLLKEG", "assay": "Western blot of T-REx cell extracts; HRP secondary antibody, chemiluminescence", "description": "as §1\nas §1, with “A” for “FIG. 3 is a”, “analysis was conducted” for “analysis”, “containing” for “contain”, “(See US2019/0062452, incorporated by reference herein).” for “(PMID: 17671174 & 26717206).”"}, "[4]": {"biological_target": "T3, recombinant human IDO2 protein (human, UniProt Q6ZQW0 1-407, limits assumed)", "T3 construct": "also called human Indoleamine 2,3-Dioxygenase 2; human IDO2 recombinant protein", "T3 sequence": "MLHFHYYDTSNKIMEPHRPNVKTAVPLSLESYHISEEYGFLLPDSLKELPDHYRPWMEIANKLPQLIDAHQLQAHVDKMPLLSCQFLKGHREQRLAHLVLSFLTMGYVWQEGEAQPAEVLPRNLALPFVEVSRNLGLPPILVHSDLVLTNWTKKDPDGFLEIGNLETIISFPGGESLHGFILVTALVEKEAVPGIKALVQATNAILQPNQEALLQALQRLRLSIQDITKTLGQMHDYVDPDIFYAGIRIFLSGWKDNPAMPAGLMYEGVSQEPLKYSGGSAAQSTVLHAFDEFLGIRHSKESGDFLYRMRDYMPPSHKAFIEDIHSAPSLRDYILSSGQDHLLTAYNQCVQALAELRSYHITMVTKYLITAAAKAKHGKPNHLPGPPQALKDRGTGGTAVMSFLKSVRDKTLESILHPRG", "assay": "ELISA; plate coated with 100 ng recombinant human IDO2; detection with anti-mouse IgG Fc-specific HRP and ABTS", "description": "(§2) FIG. 1 is a graph showing the binding curves of three anti-human IDO2 monoclonal antibodies 13-3, 18-1 and 20-10 described herein and their binding concentrations vs. human IDO2 recombinant protein. Three cloned hybridomas were generated against the human IDO2 amino acids #331-351 (NP 919270; SEQ ID NO: 23). ELISA analysis compares the binding of the anti-human IDO2 antibodies (mAbs) to recombinant human IDO2 protein (100 ng of recombinant human IDO2 protein was used to coat the ELISA plate). Increasing concentrations of mAb were incubated with the coated protein and anti-IDO2 Ig that bound the fixed protein was detected with an anti-mouse IgG Fc-specific HRP secondary antibody and ABTS substrate. Data is presented as Mean±SD.\nas §2, with “Three” for “FIG. 1 is a graph showing the binding curves of three anti-human IDO2 monoclonal antibodies 13-3, 18-1 and 20-10 described herein and their binding concentrations vs. human IDO2 recombinant protein. Three”, “substrate.” for “substrate. Data is presented as Mean±SD.”"}}, "data": [{"binder": "B1", "values": [{"measurement": "IC50 (read off the curve)", "setting": "[1]", "result": "~9", "unit": "µM"}]}, {"binder": "B2", "values": [{"measurement": "binding result", "setting": "[2]", "result": "no binding"}, {"measurement": "binding result", "setting": "[3]", "result": "no binding"}, {"measurement": "EC50 (read off the curve)", "setting": "[4]", "result": "~0.01", "unit": "µg/mL"}]}, {"binder": "B3", "values": [{"measurement": "binding result", "setting": "[2]", "result": "no binding"}, {"measurement": "binding result", "setting": "[3]", "result": "no binding"}, {"measurement": "EC50 (read off the curve)", "setting": "[4]", "result": "~0.02", "unit": "µg/mL"}]}, {"binder": "B4", "values": [{"measurement": "binding result", "setting": "[2]", "result": "no binding"}, {"measurement": "binding result", "setting": "[3]", "result": "no binding"}, {"measurement": "EC50 (read off the curve)", "setting": "[4]", "result": "~0.02", "unit": "µg/mL"}]}, {"binder": "B5", "values": [{"measurement": "IC50 (read off the curve)", "setting": "[1]", "result": "~7", "unit": "µM"}]}]}
